Results published in patent US20100160556A1, “GLP-1 Fusion Peptides Conjugated to Polymer(s), Their Production and Use” (priority 2007, published 2010).

System: type II diabetic mice (C57BL/Ks-Lepr db/db)
Experiment: In vivo bioactivity in type II diabetic mice
Details: 5 μg peptide s.c. twice a day, day 2, 4, 7, 10
Experimental: 11-week-old type II diabetic mice (C57BL/Ks-Lepr^db/db, Harlan) were treated with 5 μg peptide by subcutaneous injection twice a day at 9 a.m. and 5 p.m. (n=5 per group). Blood glucose was measured before (day 0) and after treatment with GLP^CM peptides (Day 2, 4, 7, 10) at 10 a.m. after an overnight fastening period. Data were presented in relation to blood glucose levels measured at day 0.
Best results were obtained with recombinant SEQ ID NO:6 (CM1) and synthetic SEQ ID NO:8 (CM3). In FIG. 9 (y-axis) the relative effect of the treatment is shown. Blood glucose at day ═O was set to 1. Untreated animals undergo continuous increase in blood glucose level over time, whereas animals treated with inventive peptides display grosso modo a continuous decrease of the blood glucose level over time.

B1: GLP-1(7-37)—IP2-RR-GLP2 (peptide)
chain: HAEGTFTSDVSSYLEGQAAKEFIAWLVKGRGRRDFPEEVAIAEELGRRHADGSFSDEMSTILDNLATRDFINWLIQTKITDKK
notes: 83 aa fusion peptide
anti-hyperglycemia effect (blood glucose relative to day 0): anti-hyperglycemia effect
